Experimental findings from the Human Domainome abundance scans (Beltran et al. 2025) are described below.

± gives the uncertainty stated by the source.

First the molecules themselves.
B1: POU domain, class 2, transcription factor 2, residues 200 to 269; numbered along this chain, P09086 (parent)
chain: LEELEQFARTFKQRRIKLGFTQGDVGLAMGKLYGNDFSQTTISRFEALNLSFKNMCKLKPLLEKWLNDAE

Variants of B1 are the subject of the data set. Put plainly: abundance fitness (aPCA) (normalised: wild type 0, dead -1); higher = more abundant; growth selection in yeast, the domain comes from the species named. Particulars: Homo sapiens.
With LEELEQFARTFKQRRIKLGFTQGDVGLAMGKLYGNDFSQTTISRFEALNLSFKNMCKFKPLLEKWLNDAE [L58F], the abundance fitness came to 0.005 ± 0.095.

Consider LEELEQFARTFKQRRIKLGFTQGDVGLAMGKLYGNDFSQTTISRFEALNLSFKNMCKEKPLLEKWLNDAE [L58E], for which the abundance fitness is -0.478 ± 0.091.

Take LEELEQFARTFKQRRIKLGFTQGDVGLAMGKLYGNDFSQTTISRFEALNLSFKNMCKDKPLLEKWLNDAE [L58D]: the abundance fitness was -0.576 ± 0.074.

Turning to LEELEQFARTFKQRRIKLGFTQGDVGLAMGKLYGNDFSQTTISRFEALNLSFKNMCKCKPLLEKWLNDAE [L58C], the abundance fitness was -0.067 ± 0.063.

For LEELEQFARTFKQRRIKLGFTQGDVGLAMGKLYGNDFSQTTISRFEALNLSFKNMCKAKPLLEKWLNDAE [L58A], the abundance fitness was -0.002 ± 0.04.

Take LEELEQFARTFKQRRIKLGFTQGDVGLAMGKLYGNDFSQTTISRFEALNLSFKNMCKGKPLLEKWLNDAE [L58G]: the abundance fitness is -0.619 ± 0.042.

For the variant LEELEQFARTFKQRRIKLGFTQGDVGLAMGKLYGNDFSQTTISRFEALNLSFKNMAKLKPLLEKWLNDAE [C56A], the abundance fitness is -0.022 ± 0.033.

As for LEELEQFARTFKQRRIKLGFTQGDVGLAMGKLYGNDFSQTTISRFEALNLSFKNMEKLKPLLEKWLNDAE [C56E], the abundance fitness was determined as 0.002 ± 0.045.

In the case of LEELEQFARTFKQRRIKLGFTQGDVGLAMGKLYGNDFSQTTISRFEALNLSFKNMIKLKPLLEKWLNDAE [C56I], the abundance fitness was -0.09 ± 0.062.

For LEELEQFARTFKQRRIKLGFTQGDVGLAMGKLYGNDFSQTTISRFEALNLSFKNMSKLKPLLEKWLNDAE [C56S], the abundance fitness is -0.029 ± 0.042.

As to LEELEQFARTFKQRRIKLGFTQGDVGLAMGKLYGNDFSQTTISRFEALNLSFKNMHKLKPLLEKWLNDAE [C56H], the abundance fitness is -0.082 ± 0.092.

Regarding LEELEQFARTFKQRRIKLGFTQGDVGLAMGKLYGNDFSQTTISRFEALNLSFKNMWKLKPLLEKWLNDAE [C56W], the abundance fitness was -0.046 ± 0.04.

With LEELEQFARTFKQRRIKLGFTQGDVGLAMGKLYGNDFSQTTISRFEALNLSFKNMQKLKPLLEKWLNDAE [C56Q], the abundance fitness worked out at 0.062 ± 0.067.

Consider LEELEQFARTFKQRRIKLGFTQGDVGLAMGKLYGNDFSQTTISRFEALNLSFKNMNKLKPLLEKWLNDAE [C56N], for which the abundance fitness is -0.064 ± 0.083.

For the variant LEELEQFARTFKQRRIKLGFTQGDVGLAMGKLYGNDFSQTTISRFEALNLSFKNMVKLKPLLEKWLNDAE [C56V], the abundance fitness is -0.029 ± 0.038.

As to LEELEQFARTFKQRRIKLGFTQGDVGLAMGKLYGNDFSQTTISRFEALNLSFKNMFKLKPLLEKWLNDAE [C56F], the abundance fitness is -0.034 ± 0.052.

As for LEELEQFARTFKQRRIKLGFTQGDVGLAMGKLYGNDFSQTTISRFEALNLSFKNMGKLKPLLEKWLNDAE [C56G], the abundance fitness was -0.055 ± 0.029.

Consider LEELEQFARTFKQRRIKLGFTQGDVGLAMGKLYGNDFSQTTISRFEALNLSFKNMRKLKPLLEKWLNDAE [C56R], for which the abundance fitness amounted to 0.014 ± 0.029.

LEELEQFARTFKQRRIKLGFTQGDVGLAMGKLYGNDFSQTTISRFEALNLSFKNMYKLKPLLEKWLNDAE [C56Y]: the abundance fitness is -0.196 ± 0.068.

Consider LEELEQFARTFKQRRIKLGFTQGDVGLAMGKLYGNDFSQTTISRFEALNLSFKNMKKLKPLLEKWLNDAE [C56K], for which the abundance fitness is 0.015 ± 0.055.

Turning to LEELEQFARTFKQRRIKLGFTQGDVGLAMGKLYGNDFSQTTISRFEALNLSFKNMTKLKPLLEKWLNDAE [C56T], the abundance fitness was 0.053 ± 0.042.

LEELEQFARTFKQRRIKLGFTQGDVGLAMGKLYGNDFSQTTISRFEALNLSFKNMLKLKPLLEKWLNDAE [C56L]: the abundance fitness was determined as 0.007 ± 0.03.

LEELEQFARTFKQRRIKLGFTQGDVGLAMGKLYGNDFSQTTISRFEALNLSFKNMDKLKPLLEKWLNDAE [C56D]: the abundance fitness was -0.052 ± 0.057.

For LEELEQFARTFKQRRIKLGFTQGDVGLAMGKLYGNDFSQTTISRFEALNLSFKDMCKLKPLLEKWLNDAE [N54D], the abundance fitness was determined as 0.101 ± 0.1.

Take LEELEQFARTFKQRRIKLGFTQGDVGLAMGKLYGNDFSQTTISRFEALNLSFKGMCKLKPLLEKWLNDAE [N54G]: the abundance fitness was -0.017 ± 0.042.

Turning to LEELEQFARTFKQRRIKLGFTQGDVGLAMGKLYGNDFSQTTISRFEALNLSFKFMCKLKPLLEKWLNDAE [N54F], the abundance fitness came to 0.018 ± 0.13.

With LEELEQFARTFKQRRIKLGFTQGDVGLAMGKLYGNDFSQTTISRFEALNLSFKLMCKLKPLLEKWLNDAE [N54L], the abundance fitness is -0.097 ± 0.048.

Take LEELEQFARTFKQRRIKLGFTQGDVGLAMGKLYGNDFSQTTISRFEALNLSFKAMCKLKPLLEKWLNDAE [N54A]: the abundance fitness was -0.046 ± 0.044.

As for LEELEQFARTFKQRRIKLGFTQGDVGLAMGKLYGNDFSQTTISRFEALNLSFKKMCKLKPLLEKWLNDAE [N54K], the abundance fitness was -0.017 ± 0.059.

Consider LEELEQFARTFKQRRIKLGFTQGDVGLAMGKLYGNDFSQTTISRFEALNLSFKVMCKLKPLLEKWLNDAE [N54V], for which the abundance fitness was determined as 0.032 ± 0.055.

As to LEELEQFARTFKQRRIKLGFTQGDVGLAMGKLYGNDFSQTTISRFEALNLSFKEMCKLKPLLEKWLNDAE [N54E], the abundance fitness amounted to 0.058 ± 0.088.

In the case of LEELEQFARTFKQRRIKLGFTQGDVGLAMGKLYGNDFSQTTISRFEALNLSFKCMCKLKPLLEKWLNDAE [N54C], the abundance fitness was -0.193 ± 0.09.

For the variant LEELEQFARTFKQRRIKLGFTQGDVGLAMGKLYGNDFSQTTISRFEALNLSFKPMCKLKPLLEKWLNDAE [N54P], the abundance fitness was -0.264 ± 0.059.

For LEELEQFARTFKQRRIKLGFTQGDVGLAMGKLYGNDFSQTTISRFEALNLSFKHMCKLKPLLEKWLNDAE [N54H], the abundance fitness stood at 0.091 ± 0.091.

Regarding LEELEQFARTFKQRRIKLGFTQGDVGLAMGKLYGNDFSQTTISRFEALNLSFKSMCKLKPLLEKWLNDAE [N54S], the abundance fitness came out at 0.042 ± 0.043.

On to LEELEQFARTFKQRRIKLGFTQGDVGLAMGKLYGNDFSQTTISRFEALNLSFKIMCKLKPLLEKWLNDAE [N54I], for which the abundance fitness is -0.272 ± 0.12.

On to LEELEQFARTFKQRRIKLGFTQGDVGLAMGKLYGNDFSQTTISRFEALNLSFKYMCKLKPLLEKWLNDAE [N54Y], for which the abundance fitness was 0.09 ± 0.14.

In the case of LEELEQFARTFKQRRIKLGFTQGDVGLAMGKLYGNDFSQTTISRFEALNLSFKQMCKLKPLLEKWLNDAE [N54Q], the abundance fitness is 0.11 ± 0.15.
